Laboratory results taken from US7763234B2, “Pharmaceutical compounds” (GE Healthcare AS, priority 2005, dated 2010).
Numbered stars: 1 amine (or outer) side, 2 acyl side, 3 side chain; on linkers, the order of the positions; unused ones are H or OH. Square brackets hold non-standard residues; d marks the D form. Peptide text beside a SMILES is read from it. ξ: configuration not given here. X1 = C/C(=N/O)C(C)(C)NCCC(CCNC(C)(C)/C(C)=N\O)CCN(CC(=O)[*:2])[*:1]; Ile(3ξ) = CCC(C)[C@H](N)C(=O)O

Biological target: T1, ACE (Sigma A-6778) (Oryctolagus cuniculus, UniProt P12822)
T1 construct: purchased Sigma A-6778
T1 sequence (P12822 34-1310): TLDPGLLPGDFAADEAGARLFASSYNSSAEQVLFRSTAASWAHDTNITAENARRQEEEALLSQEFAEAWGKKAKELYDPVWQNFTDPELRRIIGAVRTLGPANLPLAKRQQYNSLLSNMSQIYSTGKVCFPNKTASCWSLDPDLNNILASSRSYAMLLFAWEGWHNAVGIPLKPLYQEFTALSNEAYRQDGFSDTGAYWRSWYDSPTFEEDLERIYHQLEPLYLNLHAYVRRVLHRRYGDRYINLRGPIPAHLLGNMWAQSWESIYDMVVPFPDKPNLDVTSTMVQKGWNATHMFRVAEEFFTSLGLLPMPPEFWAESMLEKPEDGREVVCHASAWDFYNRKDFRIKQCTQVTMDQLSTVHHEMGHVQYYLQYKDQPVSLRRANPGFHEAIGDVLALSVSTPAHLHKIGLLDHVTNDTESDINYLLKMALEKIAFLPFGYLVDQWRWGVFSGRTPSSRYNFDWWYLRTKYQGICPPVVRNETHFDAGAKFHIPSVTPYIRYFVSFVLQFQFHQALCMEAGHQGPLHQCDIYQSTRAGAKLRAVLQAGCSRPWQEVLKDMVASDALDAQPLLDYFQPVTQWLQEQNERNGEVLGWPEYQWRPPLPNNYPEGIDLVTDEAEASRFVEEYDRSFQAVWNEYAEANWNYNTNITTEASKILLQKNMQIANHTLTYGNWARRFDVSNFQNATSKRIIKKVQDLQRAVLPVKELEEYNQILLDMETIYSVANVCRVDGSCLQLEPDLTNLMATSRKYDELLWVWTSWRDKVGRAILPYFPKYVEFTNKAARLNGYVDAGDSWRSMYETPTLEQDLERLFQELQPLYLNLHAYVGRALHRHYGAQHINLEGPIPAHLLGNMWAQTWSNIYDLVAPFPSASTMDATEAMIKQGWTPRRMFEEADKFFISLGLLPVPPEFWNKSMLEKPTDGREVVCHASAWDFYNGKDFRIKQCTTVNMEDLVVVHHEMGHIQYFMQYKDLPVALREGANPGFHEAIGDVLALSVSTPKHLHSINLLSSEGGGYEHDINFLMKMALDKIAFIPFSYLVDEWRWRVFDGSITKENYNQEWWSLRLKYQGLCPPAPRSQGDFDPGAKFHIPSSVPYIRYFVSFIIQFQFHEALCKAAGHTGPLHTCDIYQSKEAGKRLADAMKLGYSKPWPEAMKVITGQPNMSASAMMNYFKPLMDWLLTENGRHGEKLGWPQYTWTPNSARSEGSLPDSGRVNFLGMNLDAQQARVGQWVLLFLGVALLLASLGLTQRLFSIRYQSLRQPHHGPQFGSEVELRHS
Experiment: ACE cleavage of Ang I peptide analogues (LC-MS)
Assay type: biochemical
Details: after 120 min; 0.1 mg peptide in 100 μL ACE stock solution (0.34 mg/mL, 200 mM HEPES pH 7.8), room temperature
Experimental: ACE stock solution was prepared: 0.34 mg ACE (Sigma A-6778) was dissolved in 1 mL 200 mM HEPES adjusted to pH 7.8 using KOH.
0.1 mg of the Ang I peptide analogue was dissolved in 100 μL of the ACE stock solution and the solution incubated at room temperature. Samples (10 μL) were withdrawn from the solution, diluted with H2O/0.1% TFA (400 μL) and analysed by LC-MS.

**Q.** Which percent cleavage/time does the source give for “Ang I: the decapeptide Ang I, formed from angiotensinogen by renin and converted by ACE to the active Ang II” here?
**A.** The percent cleavage/time was 40%/120 min.

**Q.** Which percent cleavage/time does the source give for `CCC(C)[C@H](NC(=O)[C@H](Cc1ccc(O)cc1)NC(=O)[C@@H](NC(=O)[C@H](CCCNC(=N)N)NC(=O)CNCCC(CCNC(C)(C)/C(C)=N\O)CCNC(C)(C)/C(C)=N\O)C(C)C)C(=O)N[C@@H](Cc1cnc[nH]1)C(=O)N1CCC[C@H]1C(=O)N[C@@H](Cc1ccccc1)C(=O)N[C@@H](Cc1cnc[nH]1)C(=O)N[C@@H](CC(C)C)C(=O)O` (stereo partly drawn) [cPn216-Gly-Arg-Val-Tyr-Ile-His-Pro-Phe-His-Leu-OH] (H-[X1]RVY[Ile(3ξ)]HPFHL-OH) here?
**A.** Its percent cleavage/time is 40%/120 min.
